Assay results published in ChEMBL document CHEMBL1150442, “Synthesis and creatine kinase inhibitory activity of non-hydrolyzable analogs of phosphocreatine” (Bioorg Med Chem Lett, 1997).

Test system: CN(CC(=O)O)C(=N)NP(=O)(O)O
Experiment: Compound was tested for inhibition against Creatine kinase(CK)
Settings: Oryctolagus cuniculus

Creatine kinase M-type (Homo sapiens), P06732, sequence (P06732 whole entry): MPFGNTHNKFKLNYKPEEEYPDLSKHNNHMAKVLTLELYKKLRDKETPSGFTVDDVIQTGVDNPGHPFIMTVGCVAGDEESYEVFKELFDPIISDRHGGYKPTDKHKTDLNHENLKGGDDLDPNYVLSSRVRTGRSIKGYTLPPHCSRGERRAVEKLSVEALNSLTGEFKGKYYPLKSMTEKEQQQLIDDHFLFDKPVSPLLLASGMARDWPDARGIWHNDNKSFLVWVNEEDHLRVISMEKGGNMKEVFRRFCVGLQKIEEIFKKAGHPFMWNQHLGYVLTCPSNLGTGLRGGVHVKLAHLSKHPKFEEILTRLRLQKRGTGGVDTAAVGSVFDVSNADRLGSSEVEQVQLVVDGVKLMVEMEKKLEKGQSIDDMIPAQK

Q: With “Creatine kinase M-type (Homo sapiens), P06732” as the substance, how does the Km read?
A: Its Km is 2500 µM.
